Values belong to the binder of their own block, whether it stands above or below them.
Key:
[1] = target: T1, human CXCR5 (human, UniProt P32302 1-372); experiment: flow cytometry on Raji cells, fucosylated chimeric antibody
T1 construct: also called hCXCR5; C-X-C chemokine receptor type 5
T1 sequence: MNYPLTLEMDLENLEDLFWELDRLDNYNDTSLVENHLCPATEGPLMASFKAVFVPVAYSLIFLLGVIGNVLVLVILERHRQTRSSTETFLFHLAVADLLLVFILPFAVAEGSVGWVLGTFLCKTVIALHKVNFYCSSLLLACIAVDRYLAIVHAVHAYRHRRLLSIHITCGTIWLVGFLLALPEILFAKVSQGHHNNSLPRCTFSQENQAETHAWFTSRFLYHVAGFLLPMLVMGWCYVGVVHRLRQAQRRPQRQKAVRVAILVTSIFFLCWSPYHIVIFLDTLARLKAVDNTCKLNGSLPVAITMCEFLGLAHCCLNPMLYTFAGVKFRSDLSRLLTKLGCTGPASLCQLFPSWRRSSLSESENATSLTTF
Protocol: The fucosylated chimeric antibodies were then purified using protein A columns. The apparent affinity (cell binding EC50s) of chimeric antibody binding to Raji cells was determined by flow cytometry using a FACSVerse Analyzer (BD Bioscience, Franklin Lakes, N.J.) and are shown in Table 3.

[2] = target: T2, CXCR3 (human, UniProt P49682 1-368); experiment: flow cytometry (GMFI) on fixed CXCR3 cells, chimeric antibody, goat anti-human PE
T2 construct: whole, on cells
T2 sequence (looked up): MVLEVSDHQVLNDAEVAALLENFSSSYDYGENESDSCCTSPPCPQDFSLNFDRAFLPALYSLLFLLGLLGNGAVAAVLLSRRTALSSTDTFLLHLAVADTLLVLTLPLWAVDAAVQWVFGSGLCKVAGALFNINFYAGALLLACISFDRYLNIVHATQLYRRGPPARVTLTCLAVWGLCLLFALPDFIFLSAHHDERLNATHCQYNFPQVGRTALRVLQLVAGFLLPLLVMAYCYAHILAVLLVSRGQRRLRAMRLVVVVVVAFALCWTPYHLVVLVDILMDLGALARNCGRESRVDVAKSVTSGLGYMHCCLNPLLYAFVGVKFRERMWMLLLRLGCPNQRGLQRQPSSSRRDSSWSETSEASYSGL
Protocol: (§1) To determine the specificity of the antibodies for CXCR5, the binding of the antibodies to cells expressing other […] was assessed. Briefly, FlowCellect chemokine receptor cell lines expressing CXCR1, CXCR2, or CXCR3 (EMD Millipore, Billerica, Mass.), and Jurkats (ATCC, Manassas, Va.), which express CXCR4, were stained with 5 μg/ml or 10 μg/ml of each anti-CXCR5 chimeric antibody. The cells were then incubated with goat anti-human conjugated with PE (Southern Biotech, Birmingham, Ala.) prior to analysis by flow cytometry using a FACSVerse Analyzer (BD Biosciences, Franklin Lakes, N.J.).

[3] = target: T3, CXCR1 (human, UniProt P25024 1-350); experiment: flow cytometry (GMFI) on fixed CXCR1 cells, chimeric antibody, goat anti-human PE
T3 construct: whole, on cells
T3 sequence (looked up): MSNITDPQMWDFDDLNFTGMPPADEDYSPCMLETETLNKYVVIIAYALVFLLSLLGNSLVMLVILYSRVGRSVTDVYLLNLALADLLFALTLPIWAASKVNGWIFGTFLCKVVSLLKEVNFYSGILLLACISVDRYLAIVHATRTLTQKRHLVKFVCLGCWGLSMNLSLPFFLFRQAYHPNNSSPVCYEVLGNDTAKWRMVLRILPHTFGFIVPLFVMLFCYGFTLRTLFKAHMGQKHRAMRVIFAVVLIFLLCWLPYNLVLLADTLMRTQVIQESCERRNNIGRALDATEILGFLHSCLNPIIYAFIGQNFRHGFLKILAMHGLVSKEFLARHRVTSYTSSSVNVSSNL
Protocol: as §1

[4] = target: T1, human CXCR5; experiment: flow cytometry, B cells from human PBMCs (FIG. 5); afucosylated
[5] = target: T1, human CXCR5; experiment: flow cytometry, human PBMC B cells
[6] = target: T1, human CXCR5; experiment: cell-based or functional assay
[7] = target: T1, human CXCR5; experiment: flow cytometry on Raji cells
[8] = target: T4, cynomolgus monkey CXCR5 (cynomolgus monkey, UniProt P32302 1-372 (human entry)); experiment: flow cytometry on cynoCXCR5-300.19 cells
T4 construct: also called cynoCXCR5; NHP CXCR5
T4 chain: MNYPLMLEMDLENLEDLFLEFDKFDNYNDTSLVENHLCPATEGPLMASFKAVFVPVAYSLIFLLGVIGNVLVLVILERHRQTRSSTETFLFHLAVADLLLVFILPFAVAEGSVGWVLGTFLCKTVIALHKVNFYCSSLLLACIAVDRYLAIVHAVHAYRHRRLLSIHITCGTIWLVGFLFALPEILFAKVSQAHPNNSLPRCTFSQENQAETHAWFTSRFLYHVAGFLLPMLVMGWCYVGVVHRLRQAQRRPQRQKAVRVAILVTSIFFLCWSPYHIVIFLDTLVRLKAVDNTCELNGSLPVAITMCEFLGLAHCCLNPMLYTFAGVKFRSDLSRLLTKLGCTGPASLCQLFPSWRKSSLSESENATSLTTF

[9] = target: T1, human CXCR5; experiment: cell-based or functional assay; remark: listed apart in the source

EC50 [1]: 0.0175 nM
B1: Chimeric 11G2 (antibody, human IgG1, kappa, V domains shown)
VH: EVKLVESGGGLVQPGGSLRLSCATSGFTFTDFYMSWVRQPPGRALEWLGFIRNKANGYTTEYSASVKGRFTISRDNSQSILYLQMNTLRAGDSATYYCVRVYGSTLHYWGQGTILTVSS
VL: DVVVTQSPDSLAVSLGQRATISCRASESVEYHGTSLMHWYQQKPGQPPKLLIYAASNVESGVPARFSGSGSGTDFSLNIHPVEEGDIAMYFCQQSRKVPWTFGGGTKLEIKR
notes: mouse V regions on human IgG1/kappa; also called 11G2 (chimeric)
binding result [2]: no binding (tested: 5 or 10 µg/ml (not on the sheet))
binding result [3]: no binding (tested: 5 or 10 µg/ml (not on the sheet))

EC50 [4]: 0.0119 nM
fold higher affinity than 2C9 [5]: ~10 fold
fold higher affinity than 11A7 [5]: ~100 fold
EC50, functional antagonism (cAMP assay) [6]: 0.961 nM
B2: Afucosyl humanized 11G2 154/155 (antibody, human IgG1, kappa, V domains shown)
VH: EVQLVESGGGLVQPGGSLRLSCAASGFTFTDFYMSWVRQAPGKGLEWVGFIRNKANGYTTEYSASVKGRFTISRDNAKNSLYLQMNSLRAEDTAVYYCARVYGSTLHYWGQGTLVTVSS
VL: DIQMTQSPSSLSASVGDRVTITCRASESVEYHGTSLMHWYQQKPGKAPKLLIYAASNVESGVPSRFSGSGSGTDFTLTISSLQPEDFATYYCQQSRKVPWTFGQGTKVEIKR
modifications: afucosylated Fc glycan (Asn297)
notes: also called afucosyl h11G2 XC154/XC155; afucosylated h11G2 VL XC154/VH XC155

EC50 [7]: 0.0999 nM
EC50 [8]: 0.131 nM
Ca2+ flux IC50 [9]: 3.49 nM
B3: 2C9 (reference antibody) (antibody, human IgG1, kappa, V domains shown)
VH: EVQLVESGGGLVKPGGSLRLSCAASGFTFSTNAMNWVRQAPGKGLERVARIRSKSNNYATYYADSVKDRFTISRDDSKNTLYLQMNSLKTEDTAVYYCVTMIPFAYWGQGTLVTVSS
VL: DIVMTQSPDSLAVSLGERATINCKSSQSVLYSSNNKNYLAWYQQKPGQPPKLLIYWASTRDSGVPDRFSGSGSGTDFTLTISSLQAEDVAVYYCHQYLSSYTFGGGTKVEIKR
notes: fucosylated

— patent publication US20210101970A1 (Pfizer, published 2021)
